Measurements as given in publication PMC12583694, “RNF114 and RNF166 exemplify reader-writer E3 ligases that extend K11 polyubiquitin onto sites of MARUbylation” (The EMBO Journal, 2025).

Tests used:
[1] = biological target: T1, Ub-Lys-TAMRA (UniProt P0CG47 1-76, Ub is isopeptide-linked to a TAMRA-labeled Lys-Gly dipeptide (at the Ub C-terminus)); assay: fluorescence polarisation; TAMRA-labelled substrate fixed, unlabelled protein at a range of concentrations, mixed 1:1; 22 °C; 25 mM HEPES pH 7.4, 150 mM NaCl, 0.1 mg/mL BSA, 1 mM TCEP; 10 µL in 384-well plate; Kd by nonlinear regression of duplicate datasets (GraphPad Prism 10); conditions: both partners purified
T1 construct: ubiquitin (the cut product of the polyubiquitin precursor); source: generated previously (Geurink et al, 2012)

[2] = biological target: T2, Ub-ADPr-TAMRA (fluorescent ester-linked Ub-ADPr conjugate) (human, UniProt P0CG47 1-76, C-terminus ester-linked to ADP-ribose (OP-ADPr, compound 8) that carries TAMRA (CuAAC with TAMRA-azide)); assay: as above; conditions: both partners purified
T2 construct: ubiquitin, human (pET17b-Ub), wild type; observed mass of Ub 8564.4 Da; also called MARUbe probe; source: Ub purified as previously reported (Warren et al, 2023); coupled to OP-ADPr with DTX2, purified (Resource S), clicked to TAMRA-azide, purified (size exclusion)

Binder | Kd [1] [µM] | Kd [2] [µM] | binding result [1] | binding result [2]
RNF114 (wild type, full-length) (enzyme, human, UniProt Q9Y508 1-228, looked up, RNF114, human, RING-type E3 ubiquitin ligase; synthesised DNA cloned into pOPIN-B (N-terminal His-3C fusion); The methods describe no cleavage of the His-3C tag; also called WT RNF114; source: E. coli Rosetta, purified (Cobalt resin, gel filtration)) MAAQQRDCGGAAQLAGPAAEADPLGRFTCPVCLEVYEKPVQVPCGHVFCSACLQECLKPKKPVCGVCRSALAPGVRAVELERQIESTETSCHGCRKNFFLSKIRSHVATCSKYQNYIMEGVKATIKDASLQPRNVPNRYTFPCPYCPEKNFDQEGLVEHCKLFHSTDTKSVVCPICASMPWGDPNYRSANFREHIQRRHRFSYDTFVDYDVDEEDMMNQVLQRSIIDQ | ~20 | 12.8 | – | –
RNF114 F206E (enzyme, human, UniProt Q9Y508 1-228, looked up, RNF114, human, with a mutation in the linker between Di19 and UIM (modelled contact with the Ub I36 patch); Made by site-directed mutagenesis of pOPINB-RNF114 WT; no tag cleavage described; source: E. coli Rosetta, purified (Cobalt resin, gel filtration)) MAAQQRDCGGAAQLAGPAAEADPLGRFTCPVCLEVYEKPVQVPCGHVFCSACLQECLKPKKPVCGVCRSALAPGVRAVELERQIESTETSCHGCRKNFFLSKIRSHVATCSKYQNYIMEGVKATIKDASLQPRNVPNRYTFPCPYCPEKNFDQEGLVEHCKLFHSTDTKSVVCPICASMPWGDPNYRSANFREHIQRRHRFSYDTEVDYDVDEEDMMNQVLQRSIIDQ | – | – | binds | binds
RNF114 R198E (enzyme, human, UniProt Q9Y508 1-228, looked up, Made by site-directed mutagenesis of pOPINB-RNF114 WT; no tag cleavage described; source: E. coli Rosetta, purified (Cobalt resin, gel filtration)) MAAQQRDCGGAAQLAGPAAEADPLGRFTCPVCLEVYEKPVQVPCGHVFCSACLQECLKPKKPVCGVCRSALAPGVRAVELERQIESTETSCHGCRKNFFLSKIRSHVATCSKYQNYIMEGVKATIKDASLQPRNVPNRYTFPCPYCPEKNFDQEGLVEHCKLFHSTDTKSVVCPICASMPWGDPNYRSANFREHIQREHRFSYDTFVDYDVDEEDMMNQVLQRSIIDQ | – | – | binds | binds
RNF114 ΔUIM^ext (domain or fragment, human, UniProt Q9Y508 1-200, looked up, RNF114, human, truncated version that ends immediately after the Di19 domain at residue 200; No tag cleavage described; source: E. coli Rosetta, purified (Cobalt resin, gel filtration)) MAAQQRDCGGAAQLAGPAAEADPLGRFTCPVCLEVYEKPVQVPCGHVFCSACLQECLKPKKPVCGVCRSALAPGVRAVELERQIESTETSCHGCRKNFFLSKIRSHVATCSKYQNYIMEGVKATIKDASLQPRNVPNRYTFPCPYCPEKNFDQEGLVEHCKLFHSTDTKSVVCPICASMPWGDPNYRSANFREHIQRRHR | – | – | – | binds
RNF166 (enzyme, human, UniProt Q96A37 1-237, looked up, RNF166, human, RING-type E3 ubiquitin ligase; synthesised DNA cloned into pOPIN-B (N-terminal His-3C fusion); No tag cleavage described; source: E. coli Rosetta, purified (Cobalt resin, gel filtration)) MAMFRSLVASAQQRQPPAGPAGGDSGLEAQYTCPICLEVYHRPVAIGSCGHTFCGECLQPCLQVPSPLCPLCRLPFDPKKVDKATHVEKQLSSYKAPCRGCNKKVTLAKMRVHISSCLKVQEQMANCPKFVPVVPTSQPIPSNIPNRSTFACPYCGARNLDQQELVKHCVESHRSDPNRVVCPICSAMPWGDPSYKSANFLQHLLHRHKFSYDTFVDYSIDEEAAFQAALALSLSEN | – | – | – | binds
RNF138 (enzyme, human, UniProt Q8WVD3 1-245, looked up, RNF138, human, RING-type E3 ubiquitin ligase; synthesised DNA cloned into pOPIN-S3C (N-terminal His-SUMO-3C fusion); No tag cleavage described; source: E. coli Rosetta, purified (Cobalt resin, gel filtration; buffers at pH 8.0)) MAEDLSAATSYTEDDFYCPVCQEVLKTPVRTTACQHVFCRKCFLTAMRESGAHCPLCRGNVTRRERACPERALDLENIMRKFSGSCRCCAKQIKFYRMRHHYKSCKKYQDEYGVSSIIPNFQISQDSVGNSNRSETSTSDNTETYQENTSSSGHPTFKCPLCQESNFTRQRLLDHCNSNHLFQIVPVTCPICVSLPWGDPSQITRNFVSHLNQRHQFDYGEFVNLQLDEETQYQTAVEESFQVNI | – | – | – | binds
AF1521 macrodomain (natural protein, UniProt O28751 1-192, looked up, plasmid GST-AF1521 (gift from M. Nielsen); also called GST-AF1521; source: purified as previously reported (Kamata et al, 2019)) MEVLFEAKVGDITLKLAQGDITQYPAKAIVNAANKRLEHGGGVAYAIAKACAGDAGLYTEISKKAMREQFGRDYIDHGEVVVTPAMNLEERGIKYVFHTVGPICSGMWSEELKEKLYKAFLGPLEKAEEMGVESIAFPAVSAGIYGCDLEKVVETFLEAVKNFKGSAVKEVALVIYDRKSAEVALKVFERSL | – | – | binds | binds
RNF114 M-UBD construct (residues 137–228) (domain or fragment, RNF114, human, residues 137-228 (RING domain and associated disordered regions removed); No tag cleavage described; also called tandem Di19-UIM module; source: E. coli Rosetta, purified (Cobalt resin, gel filtration)) not shown | – | – | binds | –
